{"source": "paper PMC6857237", "about": "“Design and structural characterisation of olfactomedin-1 variants as tools for functional studies” (BMC Molecular and Cell Biology, 2019)", "proteins": {"B1": {"name": "Olfm1^coil-Olf (olfactomedin-1 part of the coiled coil plus Olfactomedin domain, residues 212–478), disulfide-linked dimer (domain or fragment, mouse (Mus musculus))", "chain": "GSSNLEERLRACMQKLACGKLTGISDPVTVKTSGSRFGSWMTDPLAPEGDNRVWYMDGYHNNRFVREYKSMVDFMNTDNFTSHRLPHPWSGTGQVVYNGSIYFNKFQSHIIIRFDLKTEAILKTRSLDYAGYNNMYHYAWGGHSDIDLMVDENGLWAVYATNQNAGNIVISKLDPVSLQILQTWNTSYPKRSAGEAFIICGTLYVTNGYSGGTKVHYAYQTNASTYEYIDIPFQNKYSHISMLDYNPKDRALYAWNNGHQTLYNVTLFHAAA", "modifications": "N-linked glycans (8 per dimer, GntI-/- cells); inter-chain disulfide Cys221-Cys221; for crystallisation deglycosylated with Endo-H", "notes": "N-terminal residues left by the restriction site in the mature protein; Olfactomedin-1 (Olfm1), mouse, BMZ isoform cDNA as template, residues 212-478 (UNIPROT numbering); C-terminal VIRSDEL not included; includes Cys221; Only about a third of the expressed sample formed the disulfide-linked dimer; the dimer fraction was isolated by SEC and used; Secreted with a cystatin signal peptide (not in the …)"}}, "biological_target": "the molecule itself", "assay": "SEC-MALS; analytical Superdex200 Increase 10/300, room temperature, SEC buffer (150 mM NaCl, 2 mM CaCl2, 20 mM HEPES pH 7.5), 0.5 mL/min; aldolase as calibration standard"}
{"protein": "B1", "values": [{"measurement": "stoichiometry N", "result": 2}]}
